Test results taken from the Immune Epitope Database (IEDB).

Tests used:
Experiment in all cases: IEDB peptide-MHC binding, purified MHC/competitive/radioactivity; filed as Kd, often an IC50 or EC50 that approximates it; ≥ and ≤ were set here for values at or beyond the usual limits of such assays
HLA-A*02:06 = molecular target: HLA-A*02:06
HLA-A*02:03 = molecular target: HLA-A*02:03
HLA-A*02:02 = molecular target: HLA-A*02:02
HLA-A*68:01 = molecular target: HLA-A*68:01
HLA-A*11:01 = molecular target: HLA-A*11:01
HLA-A*03:01 = molecular target: HLA-A*03:01
HLA-A*31:01 = molecular target: HLA-A*31:01
HLA-A*33:01 = molecular target: HLA-A*33:01
[1] = source organism: Vaccinia virus WR
[2] = source organism: SARS coronavirus Tor2
[3] = source organism: Mammarenavirus whitewaterense
[4] = source organism: Mammarenavirus machupoense

Sequence | Kd (HLA-A*02:06; [1]) | Kd (HLA-A*02:03; [1]) | Kd (HLA-A*02:02; [1]) | also measured
EQYTCNKPYT | ≥ 45700 nM | 3010 nM | 14000 nM | –
LMLHNPTSET | 11100 nM | 4480 nM | ≥ 39300 nM | –
DVEKRILNT | ≥ 77100 nM | 6720 nM | 5820 nM | –
AITLVVISVI | 2000 nM | 786 nM | 406 nM | –
TLYAVATTIL | – | – | – | Kd (HLA-A*02:03; source organism: Dengue virus 4 Philippines/H241/1956): 101 nM
EVIERINLLV | 300 nM | 3330 nM | 19700 nM | –
CVMYASALV | – | – | – | Kd (HLA-A*02:06; [2]): 7.36 nM; Kd (HLA-A*02:03; [2]): 2.94 nM; Kd (HLA-A*02:02; [2]): 4.48 nM
IICEDAMYYA | 8.78 nM | 108 nM | 24 nM | –
LTSNCTRTT | ≥ 40400 nM | ≥ 29600 nM | ≥ 77800 nM | –
RALIFILLTA | – | – | – | Kd (HLA-A*02:06; source organism: Dengue virus 2 Jamaica/1409/1983): 140 nM
DVGCLLTDTI | 9990 nM | 15600 nM | 10700 nM | –
DLFMSHVKSV | 19800 nM | 41.7 nM | 3380 nM | –
QLVFNSISA | 3780 nM | 1560 nM | 4800 nM | –
TLATGPITTL | – | – | – | Kd (HLA-A*02:03; source organism: Dengue virus 3 Martinique/1243/1999): 12 nM
KIKQTGINNV | 2550 nM | 3.12 nM | 237 nM | –
DLNAVTTNNL | 7520 nM | 1630 nM | 1830 nM | –
TIILNKIVQL | 30.4 nM | ≥ 49300 nM | 1760 nM | –
TVEFDRDKVV | ≥ 30800 nM | 1600 nM | 16200 nM | –
EQGDIALAL | 4770 nM | 11100 nM | 701 nM | –
ATLNTLITL | 9.59 nM | 577 nM | 373 nM | –
VAEHRFENM | ≥ 47900 nM | 7160 nM | 7130 nM | –
DTSPTKRCRL | ≥ 44700 nM | ≥ 37100 nM | 12200 nM | –
GVLPEETNI | 573 nM | ≥ 20400 nM | 17300 nM | –
STQQNKLVI | ≥ 77100 nM | 14400 nM | ≥ 53000 nM | –
CLDAGINYV | – | – | – | Kd (HLA-A*02:06; [2]): 1.56 nM; Kd (HLA-A*02:03; [2]): 6.43 nM; Kd (HLA-A*02:02; [2]): 0.569 nM

Sequence | Kd (HLA-A*02:06; [1]) | Kd (HLA-A*02:03; [1]) | Kd (HLA-A*02:02; [1]) | also measured
NIFMTLVPV | 227 nM | 6.38 nM | 86.2 nM | –
TLIQYRQQL | 1880 nM | 410 nM | 128 nM | –
LLNVQTLISL | 96.7 nM | 16.1 nM | 23.7 nM | –
DAIKSNNHLT | ≥ 69800 nM | 17900 nM | ≥ 27400 nM | –
EVTPEYIKDL | 7670 nM | 2270 nM | 1520 nM | –
RIYCSLFKNV | 7.1 nM | 29.6 nM | 913 nM | –
LVMDKNHAI | 103 nM | 770 nM | 19 nM | –
WALRHPGFTV | – | – | – | Kd (HLA-A*02:06; source organism: Dengue virus 1 Brazil/97-11/1997): 83.7 nM
FTKDGKLDDT | 898 nM | 187 nM | 145 nM | –
NIDSIMSMM | 4720 nM | 874 nM | 25 nM | –
LISLINSLV | 72.4 nM | 0.478 nM | 0.478 nM | –
LLWFLTGTFV | 18 nM | 9.18 nM | 2.42 nM | –
LMTLDDLAI | 288 nM | 75.8 nM | 51.7 nM | –
FLTGTFVTA | 2.05 nM | 0.712 nM | 4.69 nM | –
FLLRGPFEAS | – | – | – | Kd (HLA-A*02:06; [3]): 70.3 nM; Kd (HLA-A*02:03; [3]): 83.5 nM; Kd (HLA-A*02:02; [3]): 27.1 nM
IFYFISIYSR | – | – | – | Kd (HLA-A*68:01; [1]): 38.9 nM; Kd (HLA-A*11:01; [1]): 4180 nM; Kd (HLA-A*03:01; [1]): 175 nM; Kd (HLA-A*31:01; [1]): 2.39 nM; Kd (HLA-A*33:01; [1]): 76.2 nM
KTPLYYLSGT | 1420 nM | 3110 nM | ≥ 21900 nM | –
GLFDFVNFVK | – | – | – | Kd (HLA-A*68:01; [1]): 7.36 nM; Kd (HLA-A*11:01; [1]): 0.911 nM; Kd (HLA-A*03:01; [1]): 0.324 nM; Kd (HLA-A*31:01; [1]): 66.1 nM; Kd (HLA-A*33:01; [1]): 1200 nM
PFEKEFTSDY | – | – | – | Kd (HLA-A*68:01; [1]): ≥ 70200 nM; Kd (HLA-A*11:01; [1]): ≥ 69800 nM; Kd (HLA-A*03:01; [1]): ≥ 70100 nM; Kd (HLA-A*31:01; [1]): ≥ 70000 nM; Kd (HLA-A*33:01; [1]): ≥ 70000 nM
TCNDHYLCLR | – | – | – | Kd (HLA-A*68:01; [4]): 2210 nM; Kd (HLA-A*11:01; [4]): ≥ 61800 nM; Kd (HLA-A*03:01; [4]): ≥ 33300 nM; Kd (HLA-A*31:01; [4]): 123 nM; Kd (HLA-A*33:01; [4]): 718 nM
KTNCCRFQEK | – | – | – | Kd (HLA-A*68:01; [2]): 4220 nM; Kd (HLA-A*11:01; [2]): 33.3 nM; Kd (HLA-A*03:01; [2]): 38.3 nM; Kd (HLA-A*31:01; [2]): 50.5 nM; Kd (HLA-A*33:01; [2]): ≥ 37700 nM
LTPFEKEFT | ≥ 77100 nM | ≥ 20900 nM | 16800 nM | –
YVILKDPRI | 11.7 nM | 203 nM | 1550 nM | –
YVKALTKNY | – | – | – | Kd (HLA-A*68:01; [1]): 1800 nM; Kd (HLA-A*11:01; [1]): 12700 nM; Kd (HLA-A*03:01; [1]): 1590 nM; Kd (HLA-A*31:01; [1]): ≥ 77900 nM; Kd (HLA-A*33:01; [1]): ≥ 77700 nM
MLLTFLTSLL | – | – | – | Kd (HLA-A*02:06; [2]): 24.6 nM; Kd (HLA-A*02:03; [2]): 7.34 nM; Kd (HLA-A*02:02; [2]): 0.734 nM
